Publication PMC4230594 (Molecular Biology of the Cell, 2014)

Target: T1, HA-Rlf (mouse, UniProt Q61193 1-778)
T1 sequence (looked up): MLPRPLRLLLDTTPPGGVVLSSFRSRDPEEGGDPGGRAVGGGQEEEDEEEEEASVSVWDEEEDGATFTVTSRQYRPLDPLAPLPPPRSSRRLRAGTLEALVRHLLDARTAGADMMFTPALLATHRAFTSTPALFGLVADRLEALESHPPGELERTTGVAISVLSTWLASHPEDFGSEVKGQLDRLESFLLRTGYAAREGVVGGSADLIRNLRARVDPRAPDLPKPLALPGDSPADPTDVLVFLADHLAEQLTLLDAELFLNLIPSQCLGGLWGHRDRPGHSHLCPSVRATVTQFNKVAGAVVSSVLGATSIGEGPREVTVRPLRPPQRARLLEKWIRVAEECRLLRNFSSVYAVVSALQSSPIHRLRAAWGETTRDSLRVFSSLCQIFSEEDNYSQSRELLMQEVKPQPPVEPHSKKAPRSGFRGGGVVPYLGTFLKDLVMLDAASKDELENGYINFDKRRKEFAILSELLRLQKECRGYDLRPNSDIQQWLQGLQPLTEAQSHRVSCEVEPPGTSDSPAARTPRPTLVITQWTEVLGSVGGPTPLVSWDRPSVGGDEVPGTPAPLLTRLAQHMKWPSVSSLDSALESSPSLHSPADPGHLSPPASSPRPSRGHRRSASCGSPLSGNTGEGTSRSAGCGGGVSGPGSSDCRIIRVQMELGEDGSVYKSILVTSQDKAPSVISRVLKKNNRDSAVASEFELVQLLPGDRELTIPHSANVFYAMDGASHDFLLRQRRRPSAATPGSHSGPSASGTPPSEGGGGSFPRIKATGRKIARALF
Assay: co-IP

fold binding against wild-type Rab10: 2 fold
B1: Myc-Rab10 (QL) (natural protein, UniProt P61026 1-200, looked up)
chain: MAKKTYDLLFKLLLIGDSGVGKTCVLFRFSDDAFNTTFISTIGIDFKIKTVELQGKKIKLQIWDTAGLERFHTITTSYYRGAMGIMLVYDITNGKSFENISKWLRNIDEHANEDVERMLLGNKCDMDDKRVVPKGKGEQIAREHGIRFFETSAKANINIEKAFLTLAEDILRKTPVKEPNSENVDISSGGGVTGWKSKCC
